Assays:
[1] = system: Isw1a complex (TAP-purified via Ioc3-TAP, strain YTT1168) (yeast, strain YTT1168); experiment: TEM; conditions: no ATP, TEM/EMSA: 20 mM (Methods: 10 mM) Tris-HCl pH 8.0, 30 mM KCl, 17.5 mM NaCl, 1 mM Hepes pH 7.6, 0.75% glycerol, 20 min at 30 C, 750 nM DNA in bp, CHD1 tweezers: …
[2] = system: Isw1a complex (TAP-purified via Ioc3-TAP, strain YTT1168) (yeast, strain YTT1168); experiment: TEM, competition; conditions: TEM/EMSA: 20 mM (Methods: 10 mM) Tris-HCl pH 8.0, 30 mM KCl, 17.5 mM NaCl, 1 mM Hepes pH 7.6, 0.75% glycerol, 20 min at 30 C, 750 nM DNA in bp, CHD1 tweezers: …
[3] = system: Isw1a complex (TAP-purified via Ioc3-TAP, strain YTT1168) (yeast, strain YTT1168); experiment: magnetic tweezers; conditions: no ATP, end-tethered to glass and bead (1 um), TEM/EMSA: 20 mM (Methods: 10 mM) Tris-HCl pH 8.0, 30 mM KCl, 17.5 mM NaCl, 1 mM Hepes pH 7.6, 0.75% glycerol, 20 min at 30 C, 750 nM DNA in bp, CHD1 tweezers: …

Row | Substance | binding signal (% unbound DNA) ([1]; 2 nM Isw1a) | binding signal (% unbound DNA) ([1]; 10 nM Isw1a) | binding signal (% unbound DNA) ([1]; 50 nM Isw1a) | binding signal (% unbound DNA) ([2]; 2 nM Isw1a, 1:1 mixture with scDNA) | binding signal (% unbound DNA) ([2]; 10 nM Isw1a, 1:1 mixture with scDNA) | binding signal (% unbound DNA) ([2]; 50 nM Isw1a, 1:1 mixture with scDNA) | Kd ([3]; F about 1 pN, tau_on 64 s, tau_off 69 s) | Kd ([3]; extrapolated to zero force, single nucleation complex) | binding signal (% unbound DNA) ([2]; 2 nM Isw1a, 1:1 mixture with linear DNA) | binding signal (% unbound DNA) ([2]; 10 nM Isw1a, 1:1 mixture with linear DNA) | binding signal (% unbound DNA) ([2]; 50 nM Isw1a, 1:1 mixture with linear DNA)
1 | linear pBR322 EcoRV-SspI fragment, 3983 bp | 82 | 53 | 20 | 90 | 73 | 25 |  |  |  |  | 
2 | 3.6 kbp tethered DNA (magnetic trap) |  |  |  |  |  |  | 1 nM | 0.001 nM |  |  | 
3 | pBR322 negatively supercoiled plasmid | 57 | 37 | 10 |  |  |  |  |  | 59 | 33 | 6

From article PMC3281020
